# The DeepSol protein solubility set
# Assay: soluble on expression in E. coli; label from the status in PepcDB or PDB records
row,Sequence,soluble on expression in E. coli
1,AWFDWPVHRVYVNIGKTRRFHQHYYRRDVGSHVWQHNPVHRRGVAYRDRKTSDFYGKRPPRMAPVRPETRGYPGKFPGRPESRQQQPARERRDVPGAPQTGKGPGQVPRRDSTVAPQAQPPQREQVQKPARRDTPFQGVGEGSFERRAIKRGESSIRSVTPAPQGGGRGGWSGQRAPSGGGRGGGEMRMPGGGGGGGRGGGKKEFR,not soluble
2,AWQAAVASNEPFGEAQLAQRIRRYLPEQGQLFVGNSLVVRLIDALAQLPAGYPVYSNRGASGIDGLIATAAGVQRASARPTLAIVGDLSALYDLNSLALLRQASAPLVLIVVNNNGGQIFSMLPTPQDERRQFYLMPQDVDFSHAAVMFGLAYHRPDDWPSLDEALAGAWRRAGATVIELAVNETDG,not soluble
3,CATGTRQSPINIQWKDSVYDPQLAPLRVSYDAASCRYLWNTGYAFQVEFDDSCEDSGISGGPLGNHYRLKQFHFHWGATDEWGSEHAVDGHTYPAELHLVHWNSTKYENCKKASVGENGLAVIGVFLKLGAHHQALQKLVDVLPEVRHKDTQVAMGPFDPSCLMPACRDYWTYPGSLTTPPLAESVTWIVQKTPVEVSPSQLSMFRTLLFSGRGEEEDVMVNNYRPLQPLRDRKLRSSFRLDRTKMRS,soluble
4,CEEPPTFEAMELIGKPKPYYEIGERVDYKCKKGYFYIPPLATHTICDRNHTWLPVSDDACYRETCPYIRDPLNGQAVPANGTYEFGYQMHFICNEGYYLIGEEILYCELKGSVAIWSGKPPICEKV,soluble
5,CILRFIACNGQTRAVQSRGDYQKTLAIALKKFSLEDASKFIVCVSQSSRIKLITEEEFKQICFNSSSPERDRLIIVPKEKPCPSFEDLRRSWEIELAQPAALSSQSSLSP,soluble
6,CKLCLGEYPVEQMTTIAQCQCIFCTLCLKQYVELLIKEGLETAISCPDAACPKQGHLQENEIECMVAAEIMQRYKKLQFER,soluble
7,CPDRWMKYGNHCYYFSVEEKDWNSSLEFCLARDSHLLVITDNQEMSLLQVFLSEAFSWIGLRNNSGWRWEDGSPLNFSRISSNSFVQTCGAINKNGLQASSCEVPLHWVCKK,soluble
8,CYVDTNNDGAYEGDELSGTMEYKLILNGKTLKGETTTCAVDAATAEKVFKQYANDNGVDGEWTYDDATKTFTVTE,soluble
9,DAMNVMPVLAEIRERKAAHRAGMPSHVINFTLLPMNAVDMAHLQATLGNGPIQLHSRGYGSCRVLATATRDVWSVQFLNAMDTMILDTLEIGDVPAAACAADEDFSDSAERLGEIIEAYFE,not soluble
10,DAQTRRRERRAEKQAQWKAANPLLVGVSAKPVNRP,soluble
11,DDEEDEGSTIARHFHELWDMANKQDVLELILEQDIQVEEPAIFSKAIINFKADLAKKTLGPRGREVLNRLMPKVFDAVFAHPDAQFGLPRVLHLLHNICTRTTYLELLDEHPAALVQLVRLCTASPMISEQLSRYPILLDELIDPQQLYNPIPLDSYRTELRDFLARIPEDDMEQQMEALRQFKQICILRIAAADIAGVLPVMKVSDHLTYLAEAIVEAVVSQAWLQVSEKYGEPTHVKDREGKGFAVIGYGKVGGWELGYNSDLDIVFMHDCPVNVYTDGKKEIDGRQFYLRLAQRIIHIFSTRTASGILYEVDTRLRPSGASGLLVSPTDAFDDYQHQDAWTWEHQALVRARMIYGDEPLAIAFHNTRHDVLCKPRDEQTLKKEVVEMREKMRDHLGGKKSGRFMIKQDVGGITDIEFLAQYLVLNYSHEKPKLTRWCDNVRIYETLIAQGVMEEDQAMQLIRAYTAMRNEIHHRNLLNLDADVVEDKFVAEREWVKQAWNQWFA,soluble
12,DEICKNQYLYRINQENYVLFSFDIFDTLISRNIAKPSAVFLIMKQKMRNMDFPLNLVKNFDRIRVEVEQYYYRNVCKNKYEDTNFDEIYNLLQQNFSLSFQQKEELMKLEINTEKETLYPIKKNIELVEELIKNEKRVVLISDMYFSSSIIRTFLNKFSPIFNNIPIYMSSEFRLKKNSGNLFKAILNLEKVDPKKWIHCGDNWVGDYLKPSNLEISTNFYINQLLPYEEFALNRNSLDMDLQKIIGISKKIR,not soluble
13,DESATSYANSAIAIELDGDQYVARIKDPLADHAKYTEAFHAVGLDIDLRLVPASPTAVGKFLSVRWSKSSGAGPARSASGGSLPTLKFTPENCGEPNQAGCELTMRVPADYTGNMSLSLGRRAEPGEEYKNPDWATAPGEMFGGVQLQDGRPVDAMLAEARRRDLTVEFSRIRPDAETGALSFEPLSADQVRGDWTVWHAWQVKAGVIRLLVTPERLPENPFEKGARPPS,not soluble
14,DEYARDTKVEWREWGTAPFEDAAESGKPVLLALTVPWSAECRAMDRGTYGEPRIAANINDGFVPVRVDADRNPRVRERYTMGGFPSTVFLTPEGEVITGATFLGPDGFRGILDSVRESWDAQ,not soluble
15,DIESGLYALIGLFATSKTIDLVQVGLNQSKTVFIISENQEAIRQAILFKIDRGITRLSAKGGYTEDDKQILLCVIAQSEFSRLKEVIKEIDPEAFVVVMSASEVMGEGFTS,not soluble
16,DLILPFYKAGKVSFYQGDLDVLINFLEPDVLVNAANGDLRHVGGVARAIDVFTGGKLTKRSKEYLKSSKAIAPGNAVLFENVLEHLSVLNAVGPRNGDSRVEGKLCNVYKAIAKCDGKILTPLISVGIFKVKLEVSLQCLLKTVTDRDLNVFVYTDQERVTIENFFNG,soluble
17,DLTIDNGPEKGDLLVLGWGSTYGAIKKAVEQAREGGLDVAHAHLRYINPFPKNLGAMLGNFKKVLIPENNCGQLLSLIRDKFLIEPVGFSKVQGLPFNEMEIEEKITDILKEL,not soluble

row,Sequence,soluble on expression in E. coli
1,DMGESVKIIDLARQMITLSGLKPNTPEQPDGDIEILITGLRPGEKLYEELLIGDNVRKTGHPRIMTANETMLPWHELSALLDRIRAACDRYDQQAIRT,not soluble
2,DMSKVNLEVIKPWITKRVTEILGFEDDVVIEFIFNQLEVKNPDSKMMQINLTGFLNGKNAREFMGELWPLLLSAQENIAGIPSAFLELKK,not soluble
3,DNMFCNKEYCNRLKDENNCISNLQVEDQGNCDTSWIFASKYHLETIRCMKGYEPTKISALYVANCYKGEHKDRCDEGSSPMEFLQIIEDYGFLPAESNYPYNYVKVGEQCPKVEDHWMNLWDNGKILHNKNEPNSLDGKGYTAYESERFHDNMDAFVKIIKTEVMNKGSVIAYIKAENVMGYEFSGKKVKNLCGDDTADHAVNIVGYGNYVNSEGEKKSYWIVRNSWGPYWGDEGYFKVDMYGPTHCHFNFIHSVVIFNVDLPMN,soluble
4,DPAVTYYRLEEVAKRNTAEETWMVIHGRVYDITRFLSEHPGGEEILLEQAGADATESFEDIGHSPDAREMLKQYYIGDVHPNDLKP,soluble
5,DPSVFSLPDSKLPGDKEFVPWQQDLDDSVKPTQQARPTVIRWSEGGKEVFISGSFNNWSTKIPLIKSHNDFVAILDLPEGEHQYKFFVDGQWVHDPSEPVVTSQLGTINNLIHVKKSDFEVFDALKLDSMESSETSCRV,not soluble
6,DQLPGPVRVTVAGGGSARSAGESGFRRGGGRGARRGSDGGASDDDDDDGGGSGGGGGGRGFSTQGAGAKGGGSSGGSVQGIFHVKPYLEGRKCIDHGGEMVSRSAFERAGGSMMAKWYRSIKVLPEGVSLGKWLVSNGLP,not soluble
7,DQPGHYVGTDPNLGALSAFLAGETEEVPDANEIMPVLWDMVTTGVAQGESARAVRTAFVSNPSAALTGLSESLVPAEKQPGRVVESGLVRAKFTASNDESGSSHHRAPWIAVLELLGSLDAMTDQSGKPIELETDAPAPAGKKLSEGVVAKRALLAEIKELAGENAVAIVKTARDTTLDTACIDQSTVAIAGMAKAQQEALLEMFFSRSKIVPGLIMDDGNRLLAVFETFNKRVELNELLASEGLIKSAVTLLRTLRSTDKNLYSLARIRFDKLDGVDTNAPENMWSLTPVVSLVLALAARMHAHGFISSNKTLDSATPGWAKLADIVPDLVTGDLIAADAIILAMKKPGIA,not soluble
8,DRCYNCGGLDHHAKECKLPPQPKKCHFCQSISHMVASCPLKAQQGPSAQG,soluble
9,DSKDTRQFVKSIAKDAHRIGQDNDIYASVMIAQAILESDSGRSALAKSPNHNLFGIKGAFEGNSVPFNTLEADGNKLYSINAGFRKYPSTKESLKDYSDLIKNGIDGNRTIYKPTWKSEADSYKDATSHLSKTYATDPNYAKKLNSIIKHYQL,not soluble
10,DSMADITACPGTDTCNLGISSSTGLSVEIEKMLLEEFPDTVFNKNIKIKISGCMNACGQHTIGNIGFHGMSIKNGTNVLPAMQVMLGGGLEPDGTGTIADKILKLPTRRCVEAVREILTDYDTNATEGEYFNDYYRRQVAAEKMYFYKLLKPLSDLETLTELDYIDL,not soluble
11,DTDGLWAALTEAAASVEKLLATLPEHGARSSAERAEIAAAHDAARALRVRFLDTHADAVYDRLTDHRRVHLRLAELVEAAATAFPGLVPTQQQLAVERSLPQAAKEGHEIDQGIFLRAVLRSPLAGPHLLDAMLRPTPRALELLPEFVRTGEVEMEAVHLERRDGVARLTMCRDDRLNAEDGQQVDDMETAVDLALLDPGVRVGLLRGGVMSHPRYRGKRVFSAGINLKYLSQGGISLVDFLMRKELGYIHKLVRGVLTNDDRPGWWHSPRIEKPWVAAVDGFAIGGGAQLLLVFDRVLASSDAYFSLPAAKEGIIPGAANLRLGRFAGPRVSRQVILEGRRIWAKEPEARLLVDEVVEPDELDAAIERSLTRLDGDAVLANRRMLNLADESPDGFRAYMAEFALMQALRLYGHDVI,soluble
12,DTTKNIFIEGDNLDALKLLQENYLGKIKMVYIDPPYNTGNDFVYADDFVDEVSEFFLRSNQVDREGNRLTANPETSGRFHSDWLSMMYSRLKLSRNLLRDDGLIVIHIDENEYPNLEKLLAEIYGEKNNLGTIVWDKRNPKGDATGVAQQHELICIYCKDREFFKTTCEFQRPKENAGKMLAKAKQILSKEGGVTEKARKEYKDWVNQQDLTGGEKAYNQIDDNGDVFRPVSMAWPNKKKAPEDYFIPLIHPVTGKECPVPERGWRNPPATMQELLKSGLIIFGPDEKTQPTRKYRLNDNLFENIPSLLYYGGSDDALLADLKIPFDTPKPVQVAKRLIQSICKNDDILIDFFAGSCTAAHALMLLNAEDGANRRFIMVQLPEECDEKSEAKKLGYSVVSEIGKNRIRRAAKKIREEFSEILATRNTELDLGFRLLKVDTSNMAD,not soluble
13,DVTGLPTGFRDLDRITTGLHPDQLIILAARPAVGKTAFVLNIAQNVGTKQNRPVAIFSLEMGAESLVDRMLAAEGMVDSHSLRTGQLTDQDWNNVTIAQGALADAPIYIDDTPGIKITEIRARSRKLSQEVDDGLGLIVIDYLQLISGTRPENRQQEVSEISRQLKILAKELKVPVIALSQLSRGVEQRQDKRPVLSDI,not soluble
14,DVTNAEKLVYKYTNIAHSANPMYEAPSITDGKIFFNRKFKTPSGKEAACASCHTNNPANVGKNIVTGKEIPPLAPRVNTKRFTDIDKVEDEFTKHCNDILGADCSPSEKANFIAYLLTETKPTK,soluble
15,DYMRFALKGKQGKGMKMPEGVVSSNGEYYMKERMVTDPGLTLDNSGIAPQPSRRAKEDDGGAAEGGRQAADDEVRQDMQETPVLPSNTGSKQQQLDSLF,not soluble
16,EAAPAPAGKGKILAVTACPTGIAHTFMAADALKEKAKELGVEIKVETNGSSGIKHKLTAQEIEDAPAIIVAADKQVEMERFKGKRVLQVPVTAGIRRPQELIEKAMNQDAPIYQGSGGGSA,not soluble
